T1: Rhesus-ICAM1 (rhesus, UniProt Q5NKV6 28-480, limits assumed)
T1 sequence (looked up): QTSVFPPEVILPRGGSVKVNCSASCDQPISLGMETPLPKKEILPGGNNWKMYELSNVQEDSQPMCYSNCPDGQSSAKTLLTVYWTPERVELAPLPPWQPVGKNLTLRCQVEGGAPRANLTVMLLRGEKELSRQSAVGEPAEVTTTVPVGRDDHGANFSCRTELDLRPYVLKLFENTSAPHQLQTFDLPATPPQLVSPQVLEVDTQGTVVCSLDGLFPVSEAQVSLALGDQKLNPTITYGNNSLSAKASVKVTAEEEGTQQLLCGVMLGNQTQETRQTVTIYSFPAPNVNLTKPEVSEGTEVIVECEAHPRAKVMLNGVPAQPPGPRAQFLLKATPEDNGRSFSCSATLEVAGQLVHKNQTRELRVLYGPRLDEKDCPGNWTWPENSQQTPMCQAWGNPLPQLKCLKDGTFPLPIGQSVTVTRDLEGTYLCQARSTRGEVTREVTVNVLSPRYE

B1: 8H1 (antibody, human IgG1, kappa, V domains shown)
VH: QSVEESGGRLVTPGTPLTLTCTASGFSLSNYYMSWVRQAPGKGLEWIGIISDSGSTYYASWAKGRFTISKTSTTVDLKITSPTTEDTATYFCARDWSYDSSSGYYYYDMDLWGPGTLVTVSA
VL: GYDMTQTPASVEVAVGGTVTIKCQASQSINSWLAWFQHKPGQPPKRLIYKASTLASGVSSRFKGSGSGTQFTLTISGVESADAATYYCQQGYSRSDGEHVFGGGTEVVVKR
notes: Rabbit-human chimeric anti-ICAM1: rabbit VH and VL on human IgG1 and kappa constant regions
B2: 11G7 (antibody, human IgG1, kappa, V domains shown)
VH: QSVEESGGRLVTPGTPLTLTCTVSGFSLSDYYMSWVRQAPGKGLEWIGIISDSGSTYYASWAKGRFTISKTSSTTVDLKITSPTTEDTATYFCARDWSYDSSSGYYYYDMDLWGPGTLVTVSA
VL: B1 VL with G1A, A34S, Q37H, H38Q
notes: as for B1
B3: 15D10 (antibody, human IgG1, kappa, V domains shown)
VH: B1 VH with S29N, G54D, S55N, Y98L
VL: B1 VL with G1A, V11M, S28N, N30H, H38Q, S59P, E79Q, A81D
notes: as for B1
B4: 4H5 (antibody, human IgG1, kappa, V domains shown)
VH: B1 VH with S55T
VL: B1 VL with A34V, Q70H
notes: as for B1
B5: 14H1 (antibody, human IgG1, kappa, V domains shown)
VH: B1 VH with A23V, K78S, S101T
VL: B1 VL with G1A, A34S, Q37H, H38Q
notes: as for B1
B6: 11F2 (antibody, human IgG1, kappa, V domains shown)
VH: QSVEESGGGLVKPGGTLTLTCTVSGFSLSSHAMGWVRQAPGKGLEYIGIIGSSDRTYYASWAKGRFTISKTSTTVDLKITSPTTEDTATYFCVRDPYDSYDDGYRLWGPGTLVTVSS
VL: AYDMTQTPASVEVAVGGTVTIKCQASQSIYRYLSWYQKKPGQRPKFLIYDASKLASGVPSRFEGSGSGTEFTLTISGAQSDDAATYYCQQAYSSGSIDNAFGGGTEVVVKR
notes: as for B1
B7: 8B12 (antibody, human IgG1, kappa, V domains shown)
VH: B6 VH with S30T, Y100F
VL: B6 VL with R31S, K38Q, L54V, E63K, G77A, A78V, G95S, S96N, I97V, V108M
notes: as for B1
B8: 4618_1 (antibody, human IgG1, kappa, V domains shown)
VH: EVQLLESGGGLVQPGGSLRLSCAASGFPFDVYAMSWVRQAPGKGLEWVSAISGSGGSTFYADSVKGRFTISRDNSKNTLYLQMNSLRAEDTAVYYCAKRGTYAYSFPTGFDYWGQGTLVTVSS
VL: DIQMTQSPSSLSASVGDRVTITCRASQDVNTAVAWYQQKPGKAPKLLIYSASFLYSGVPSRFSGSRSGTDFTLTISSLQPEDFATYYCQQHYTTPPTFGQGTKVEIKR
notes: Human IgG1 with the common anti-HER2 light chain; Library-derived anti-CD38
B9: 4618_12 (antibody, human IgG1, kappa, V domains shown)
VH: B8 VH with D30G, F106Y
VL: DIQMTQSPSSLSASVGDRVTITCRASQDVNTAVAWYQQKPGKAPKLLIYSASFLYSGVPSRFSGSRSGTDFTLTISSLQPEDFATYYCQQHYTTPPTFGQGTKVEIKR
notes: Human IgG1 with the common anti-HER2 light chain
B10: 4618_5 (antibody, human IgG1, kappa, V domains shown)
VH: B8 VH with V31A, F59Y
VL: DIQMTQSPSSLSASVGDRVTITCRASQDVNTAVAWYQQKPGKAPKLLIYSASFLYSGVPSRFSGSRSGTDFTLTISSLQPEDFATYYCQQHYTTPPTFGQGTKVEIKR
notes: as for B8
B11: 4618_5_12 (antibody, human IgG1, kappa, V domains shown)
VH: B8 VH with V31A, F59Y, F106Y
VL: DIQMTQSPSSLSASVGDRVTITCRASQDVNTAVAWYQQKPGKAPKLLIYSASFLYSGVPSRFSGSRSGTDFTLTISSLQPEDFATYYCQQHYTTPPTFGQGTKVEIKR
notes: as for B8
B12: 4618_5F_12 (antibody, human IgG1, kappa, V domains shown)
VH: B8 VH with V31A, F106Y
VL: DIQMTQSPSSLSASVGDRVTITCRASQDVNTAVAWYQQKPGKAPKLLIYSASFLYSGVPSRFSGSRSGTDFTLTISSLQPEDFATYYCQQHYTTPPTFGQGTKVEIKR
notes: as for B9
B13: 32218_1 (antibody, human IgG1, kappa, V domains shown)
VH: B8 VH with D30G
VL: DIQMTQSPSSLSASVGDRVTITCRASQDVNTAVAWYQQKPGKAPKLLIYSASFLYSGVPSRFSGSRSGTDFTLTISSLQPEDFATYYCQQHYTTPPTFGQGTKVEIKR
notes: as for B8
B14: 32218_2 (antibody, human IgG1, kappa, V domains shown)
VH: B8 VH with V31T, F59Y
VL: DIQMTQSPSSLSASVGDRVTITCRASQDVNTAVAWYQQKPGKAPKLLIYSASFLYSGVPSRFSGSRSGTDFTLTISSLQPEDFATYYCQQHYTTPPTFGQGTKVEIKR
notes: as for B8
B15: 32018_7 (antibody, human IgG1, kappa, V domains shown)
VH: B8 VH with D30G, V31T, A103G
VL: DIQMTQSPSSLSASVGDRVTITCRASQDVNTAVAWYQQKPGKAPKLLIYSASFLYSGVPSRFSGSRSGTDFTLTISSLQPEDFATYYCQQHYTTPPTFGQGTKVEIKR
notes: as for B8
B16: 4618_1_12 (antibody, human IgG1, kappa, V domains shown)
VH: B8 VH with F106Y
VL: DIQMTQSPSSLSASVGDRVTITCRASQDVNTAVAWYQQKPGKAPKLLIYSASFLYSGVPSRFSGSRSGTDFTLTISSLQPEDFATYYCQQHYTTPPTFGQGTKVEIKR
notes: as for B8

Where a chain is given by its changes, count along the chain named.

T2 sequence (P05362 28-532): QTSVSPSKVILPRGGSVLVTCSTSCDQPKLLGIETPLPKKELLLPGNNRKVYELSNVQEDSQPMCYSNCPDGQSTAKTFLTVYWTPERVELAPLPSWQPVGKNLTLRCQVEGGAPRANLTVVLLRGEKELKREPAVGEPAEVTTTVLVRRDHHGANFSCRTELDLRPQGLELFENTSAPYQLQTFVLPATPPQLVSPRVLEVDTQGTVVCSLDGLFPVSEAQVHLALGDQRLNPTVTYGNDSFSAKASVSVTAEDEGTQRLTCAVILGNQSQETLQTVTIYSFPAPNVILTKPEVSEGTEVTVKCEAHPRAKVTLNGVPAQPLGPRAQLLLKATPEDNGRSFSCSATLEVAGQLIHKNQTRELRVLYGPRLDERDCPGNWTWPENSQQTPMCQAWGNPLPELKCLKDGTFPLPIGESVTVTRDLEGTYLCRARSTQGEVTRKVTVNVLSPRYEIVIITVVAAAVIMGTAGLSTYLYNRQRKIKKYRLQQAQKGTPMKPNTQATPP

One test addresses T2, ICAM1 on the surface of DU145 cells (human, UniProt P05362 28-532).
T2 construct: whole, on cells
Kind of test: flow cytometry, DU145 cells.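 Also: purified antibodies in dilution series bound to cells for 1 h at 4 °C, detected with a fluorescent secondary antibody (1 h, 4 °C, dark), read by flow cytometry.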
Description: Harvested cells were centrifuged at 2000 rpm for 5 min and resuspended with 10-15 ml ice-cold culture medium. Cells were counted and then 3×10⁶ cells were resuspended per mL of blocking buffer (PBS plus 2% FBS). 100 μl of the cell suspension was dispensed into each well of a 96-well plate and incubated at room temperature for 10-20 min. […] While incubating, purified antibodies were diluted to the desired dilution with blocking buffer. After a 10-20 minutes incubation, cells were centrifuged for 5 min at 2000 rmp in a refrigerated centrifuge. Blocking buffer was aspirated, and cells were resuspended in 100 μl/well diluted antibodies and incubated for 1 hour at 4° C. The cells were then washed 3 times with PBS plus 2% FBS. After the final wash, the cells were resuspended in 100 μl 1:500 diluted secondary antibody (Invitrogen, Cat #: A10631) and incubated for 1 hour at 4° C. in the dark. The cells were then washed 3 times with 200 μl PBS by centrifuging at 2000 rpm for 5 min. After the last wash, the cells were resuspended in 300 μl cold PBS and analyzed on a FACSVerse™ (BD Biosciences) flow cytometer.
The EC50 is the concentration that produces a half-maximal response. Low readings indicate an effect from little substance, high ones a need for much substance. As to B1, the response was half-maximal at 1.82 nM (EC50) and the “Max Binding MFI” value came out at 5270 MFI.
Taken in the same sequence, the figures for B2 were 1.04 nM and 4820 MFI.
B3: the EC50 is 0.879 nM and the “Max Binding MFI” value came out at 5000 MFI.
For B4, the EC50 is 1.31 nM and the “Max Binding MFI” value was 4720 MFI.
Taken in the same sequence, the figures for B5 were 0.591 nM and 4690 MFI.
In the case of B6, a half-maximal response (EC50) required 1.31 nM and the “Max Binding MFI” value is 4060 MFI.
Take B7: the EC50 stood at 1.02 nM and the “Max Binding MFI” value worked out at 3750 MFI.

A further test has as its target T3, cynomolgus CD38 ECD (cynomolgus, UniProt Q5VAN0 44-301, biotinylated on the AviTag during preparation).
T3 construct: also called Cyno-CD38; Avi-Cyno CD38 ECD
Kind of test: SPR (Biacore 8K), antibody captured, antigen injected. (Surface plasmon resonance follows binding to a sensor surface in real time, without labels.)
Description: (§1) The binding kinetics of the anti-CD38 and anti-ICAM1 antibodies were evaluated on a Biacore 8K instrument (GE Healthcare). Biacore Series S CM5 sensor chips were immobilized with monoclonal mouse anti-human IgG (Fc) antibody (human antibody capture kit from GE Healthcare). Antibodies were captured on each flow cell. Serial 3-fold dilutions of each antigen were injected at a flow rate of 30 μl/min. Each sample was analyzed with 1 min association and 10 min dissociation at room temperature (25° C.). After each injection, the chip was regenerated using 3M MgCl₂. A 1:1 Langmuir model of simultaneous fitting of kₒₙ and koff was used for kinetics analysis.
The Kd is the free concentration of one partner at which half of the binding sites on the other are occupied at equilibrium, for simple one-to-one binding. For orientation: koff means the first-order rate constant of dissociation. For orientation: kon means the rate constant with which the complex forms. Take B8: the Kd stood at 1.68 nM, the koff amounted to 0.00288 s⁻¹ and the kon was 1.71e+06 M⁻¹ s⁻¹.
B9 yielded a Kd of 1.65 nM, a koff of 0.00253 s⁻¹ and a kon of 1.53e+06 M⁻¹ s⁻¹.
Taken in the same sequence, the figures for B10 were 1.48 nM, 0.00321 s⁻¹ and 2.17e+06 M⁻¹ s⁻¹.
In turn, B11 yielded a Kd of 1.33 nM, a koff of 0.00168 s⁻¹ and a kon of 1.26e+06 M⁻¹ s⁻¹.
In the same order, the values of B12 are 0.83 nM, 0.00144 s⁻¹ and 1.74e+06 M⁻¹ s⁻¹.
In the case of B13, the affinity, expressed as Kd, was 4.1 nM; the koff is 0.00496 s⁻¹; the kon amounted to 1.21e+06 M⁻¹ s⁻¹.
As for B14, the Kd amounted to 7.43 nM, the koff worked out at 0.0156 s⁻¹ and the kon is 2.1e+06 M⁻¹ s⁻¹.
The molecule B15 registered a Kd of 12.4 nM, a koff of 0.0155 s⁻¹ and a kon of 1.25e+06 M⁻¹ s⁻¹.
With B16, the affinity, expressed as Kd, was 0.62 nM; the koff worked out at 0.00157 s⁻¹; the kon was 2.53e+06 M⁻¹ s⁻¹.

A further test addresses recombinant human CD38 (human, UniProt P28907 43-300, limits assumed). The description is as above.
Description: as §1
Turning to B8, the equilibrium dissociation constant (Kd) stood at 3.81 nM, the koff came to 0.00188 s⁻¹ and the kon turned out to be 494000 M⁻¹ s⁻¹.
In the same order, the values of B9 are 1.79 nM, 0.00077 s⁻¹ and 430000 M⁻¹ s⁻¹.
In the same order, the values of B10 are 2.23 nM, 0.00121 s⁻¹ and 542000 M⁻¹ s⁻¹.
B11: the Kd worked out at 1.68 nM, the koff came to 0.000596 s⁻¹ and the kon was determined as 354000 M⁻¹ s⁻¹.
As to B12, the Kd was determined as 0.66 nM, the koff was 0.000295 s⁻¹ and the kon was 449000 M⁻¹ s⁻¹.
B13: the Kd was 3.61 nM, the koff is 0.00178 s⁻¹ and the kon turned out to be 493000 M⁻¹ s⁻¹.
For the molecule B14, the Kd turned out to be 13.1 nM, the koff is 0.00887 s⁻¹ and the kon came out at 675000 M⁻¹ s⁻¹.
In the same order, the values of B15 are 38.2 nM, 0.0116 s⁻¹ and 304000 M⁻¹ s⁻¹.
In the same order, the values of B16 are 0.42 nM, 0.000273 s⁻¹ and 657000 M⁻¹ s⁻¹.

The next test deals with T4, recombinant human ICAM1 (human, UniProt P05362 28-480, limits assumed). Kind of test: ELISA: plate coated with 1 ug/ml recombinant human ICAM1 ECD, serially diluted antibody, OD450. (An ELISA detects its analyte on a solid surface through an enzyme-linked reagent.)
T4 sequence (P05362 28-480 limits assumed): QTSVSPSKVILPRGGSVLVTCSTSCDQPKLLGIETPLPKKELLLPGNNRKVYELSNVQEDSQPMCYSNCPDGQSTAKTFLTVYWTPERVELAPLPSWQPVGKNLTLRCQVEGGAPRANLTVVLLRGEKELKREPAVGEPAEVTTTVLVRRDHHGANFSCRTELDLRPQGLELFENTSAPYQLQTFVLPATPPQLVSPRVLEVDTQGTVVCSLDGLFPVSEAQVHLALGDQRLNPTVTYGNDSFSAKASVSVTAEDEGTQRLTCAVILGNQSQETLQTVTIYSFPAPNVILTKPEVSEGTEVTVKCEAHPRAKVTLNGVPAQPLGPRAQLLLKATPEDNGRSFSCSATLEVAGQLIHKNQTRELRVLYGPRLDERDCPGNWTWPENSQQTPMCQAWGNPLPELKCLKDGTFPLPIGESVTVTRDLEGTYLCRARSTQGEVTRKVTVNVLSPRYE
Description: (§2) The plate was coated overnight at 4° C. with 1 μg/ml recombinant CD38 or ICAM1. After washing 3 times, the plate was blocked with 300 μl 1% BSA in PBST at 37° C. for 1 hour. Serially diluted antibodies were added and incubated at 37° C. for 1 hour. The plate was then washed 4 times with PBST and incubated with 1:5000 diluted 2nd antibody (Sigma, Cat #A0293) at 37° C. for 1 hour.
As a reminder, the EC50 (read off the curve) is the midpoint of the concentration-response curve. Take B1: the “EC50 (read off the curve)” value was ~0.04 nM.
The same measure, in the same setting: under B2 stands ~0.04 nM; under B3, ~0.04 nM.
Still for that read-out and setting: under B4 stands ~0.04 nM.
Still for that read-out and setting: next, B5: ~0.04 nM; B6: ~0.04 nM.
B7: the half-maximal effective concentration (EC50 (read off the curve)) is ~0.04 nM.

The target in a further test is T1, Rhesus-ICAM1. The test can be described thus: ELISA: plate coated with 1 ug/ml recombinant rhesus ICAM1 ECD, serially diluted antibody, OD450.
Description: as §2
For the molecule B1, the “EC50 (read off the curve)” value is ~0.04 nM.
Still for that read-out and setting: under B2 stands ~0.04 nM.
On the same count and under the same terms, next, B3: ~0.04 nM; B4: ~0.04 nM; B5: ~0.04 nM.
In the case of B6, the “EC50 (read off the curve)” value was ~0.04 nM.
For the molecule B7, the “EC50 (read off the curve)” value is ~0.04 nM.

In a further test the target is T4, recombinant human ICAM1. Kind of test: SPR (Biacore 8K), antibody captured, antigen injected.
Description: as §1
With B1, the Kd came to 3.1 nM, the koff amounted to 0.000345 s⁻¹ and the kon was determined as 111000 M⁻¹ s⁻¹.
In the same order, the values of B2 are 2.65 nM, 0.000271 s⁻¹ and 103000 M⁻¹ s⁻¹.
For the molecule B3, the Kd was found to be 2.12 nM, the koff worked out at 0.000181 s⁻¹ and the kon amounted to 85500 M⁻¹ s⁻¹.
Taken in the same sequence, the figures for B4 were 3.39 nM, 0.000256 s⁻¹ and 75600 M⁻¹ s⁻¹.
In the same order, the values of B5 are 1.62 nM, 0.000237 s⁻¹ and 146000 M⁻¹ s⁻¹.
In the same order, the values of B6 are 0.29 nM, 0.000131 s⁻¹ and 456000 M⁻¹ s⁻¹.
Turning to B7, the Kd worked out at 0.26 nM, the koff was determined as 0.000115 s⁻¹ and the on-rate constant (kon) came to 442000 M⁻¹ s⁻¹.

For the next test, the target named is T1, Rhesus-ICAM1. The test is described as above.
Description: as §1
The molecule B1 yielded a Kd of 2.92 nM, a koff of 0.00125 s⁻¹ and an association rate constant (kon) of 427000 M⁻¹ s⁻¹.
In the same order, the values of B2 are 4.28 nM, 0.000624 s⁻¹ and 146000 M⁻¹ s⁻¹.
In the same order, the values of B3 are 1.79 nM, 0.000421 s⁻¹ and 236000 M⁻¹ s⁻¹.
Taken in the same sequence, the figures for B4 were 4.11 nM, 0.000568 s⁻¹ and 138000 M⁻¹ s⁻¹.
B5: the Kd is 2.25 nM, the koff is 0.000434 s⁻¹ and the kon was 193000 M⁻¹ s⁻¹.
For B6, the Kd is 0.25 nM, the koff was 0.000224 s⁻¹ and the kon came out at 914000 M⁻¹ s⁻¹.
Taken in the same sequence, the figures for B7 were 0.88 nM, 0.000658 s⁻¹ and 746000 M⁻¹ s⁻¹.

The values are drawn from patent publication US20220002432A1 (VIRTUOSO BINCO, published 2022).
